The target of test [1] is monomeric RAD51 (HumRadA22). The experiment in a line: fluorescence polarisation.
Test [2] has as its target monomeric RAD51 (HumRadA22).
Test [3] deals with monomeric RAD51 (HumRadA22). Description: ITC.

pKd: −log10 of the molar value. Read-outs that look alike come from different tables or passages of the source.

Regarding GB1-BRC4-5 (peptide), the negative-log Kd (pKd) in test [1] is 5.68.
GB1-BRC7-8 (peptide) had a pKd in test [1] of 4.96.
For the substance BRC4 with deletion of Lys1530 (peptide), in test [2], the negative logarithm of the Kd (pKd) was 5.39.
In the case of GB1-BRC4 (peptide), the pKd in test [3] was 7.96; in test [2], 7.68; in test [1], 7.42.
As for BRC8-2(S2056A) (peptide), the negative logarithm of the Kd (pKd) in test [3] was 8.30.
